Reference: paper doi:10.1101/2025.07.03.659157, “Transient Poly(ADP-Ribose) Triggers FUS Condensation Hysteresis via a Prion-Like Mechanism” (bioRxiv, 2025)

Experiments:
[1] = test system: [KGKGG]5 peptide; assay: EMSA; conditions: poly(ADP-ribose), 16 ADP-ribose units; no base sequence; EMSA and anisotropy: 50 mM Tris-HCl pH 7.5, 100 mM KCl, 10 mM beta-mercaptoethanol, 0.1 mg/mL BSA, 2 mM MgCl2, 23 C, 30 min; single-molecule: 20 mM Tris-HCl pH …
[2] = test system: [KGYGG]5 peptide; assay: EMSA; conditions: poly(ADP-ribose), 16 ADP-ribose units; no base sequence; EMSA and anisotropy: 50 mM Tris-HCl pH 7.5, 100 mM KCl, 10 mM beta-mercaptoethanol, 0.1 mg/mL BSA, 2 mM MgCl2, 23 C, 30 min; single-molecule: 20 mM Tris-HCl pH …
[3] = test system: [RGRGG]5 peptide; assay: EMSA; conditions: poly(ADP-ribose), 16 ADP-ribose units; no base sequence; EMSA and anisotropy: 50 mM Tris-HCl pH 7.5, 100 mM KCl, 10 mM beta-mercaptoethanol, 0.1 mg/mL BSA, 2 mM MgCl2, 23 C, 30 min; single-molecule: 20 mM Tris-HCl pH …
[4] = test system: [RGYGG]5 peptide; assay: EMSA; conditions: poly(ADP-ribose), 16 ADP-ribose units; no base sequence; EMSA and anisotropy: 50 mM Tris-HCl pH 7.5, 100 mM KCl, 10 mM beta-mercaptoethanol, 0.1 mg/mL BSA, 2 mM MgCl2, 23 C, 30 min; single-molecule: 20 mM Tris-HCl pH …
[5] = test system: FUS RGG3-PY fragment; assay: fluorescence anisotropy; conditions: poly(ADP-ribose); length not given in material; EMSA and anisotropy: 50 mM Tris-HCl pH 7.5, 100 mM KCl, 10 mM beta-mercaptoethanol, 0.1 mg/mL BSA, 2 mM MgCl2, 23 C, 30 min; single-molecule: 20 mM Tris-HCl pH …
[6] = test system: FUS with all 15 RGG3-PY arginines to alanine; assay: fluorescence anisotropy or EMSA (method not given); conditions: poly(ADP-ribose); length not given in material; EMSA and anisotropy: 50 mM Tris-HCl pH 7.5, 100 mM KCl, 10 mM beta-mercaptoethanol, 0.1 mg/mL BSA, 2 mM MgCl2, 23 C, 30 min; single-molecule: 20 mM Tris-HCl pH …
[7] = molecular target: T1, His-MBP-tagged PrLD (prion-like domain) of FUS (Fused in Sarcoma); assay: BLI
T1 chain: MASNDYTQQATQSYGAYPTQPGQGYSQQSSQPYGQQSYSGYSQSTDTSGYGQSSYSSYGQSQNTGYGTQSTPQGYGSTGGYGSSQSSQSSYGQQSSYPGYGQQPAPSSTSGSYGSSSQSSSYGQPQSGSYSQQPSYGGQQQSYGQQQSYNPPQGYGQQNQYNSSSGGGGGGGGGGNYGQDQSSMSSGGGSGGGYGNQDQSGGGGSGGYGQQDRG

[8] = molecular target: T2, His-MBP-tagged PrLD (prion-like domain) of FUS (Fused in Sarcoma); assay: BLI; His-MBP-tagged PrLD (400 nM) immobilised on HIS1K (anti-His) biosensors; analyte in PBSA (PBS + 0.1% BSA), MBP-tagged CTRR at 0.4, 1, 2, 5 and 12 uM; association 600 s, dissociation 600 s; Octet RED96; association phase fitted to an exponential kinetic binding model; conditions: both partners purified
T2 chain: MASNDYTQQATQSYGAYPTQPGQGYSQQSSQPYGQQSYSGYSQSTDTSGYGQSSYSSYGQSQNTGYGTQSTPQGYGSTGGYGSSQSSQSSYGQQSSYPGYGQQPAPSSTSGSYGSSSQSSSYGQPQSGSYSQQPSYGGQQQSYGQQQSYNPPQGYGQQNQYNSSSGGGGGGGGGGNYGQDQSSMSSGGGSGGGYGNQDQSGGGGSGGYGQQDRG

Cy3-PAR 16-mer gave a Kd [1] of 24 µM, a Kd [2] of 29 µM and a Kd [3] of 0.8 µM. It also gave a Kd [4] of 10 µM.

Work on AF488-PAR (anisotropy) yielded a binding signal (fold weaker than full-length FUS) [5] of 3 and a binding signal (fold weaker than wild-type FUS) [6] of 2.7.

B1: MBP-tagged CTRR (C-terminal RGG-rich region, RGG2-ZnF-RGG3-PY) of FUS (domain or fragment)
chain: RADFNRGGGNGRGGRGRGGPMGRGGYGGGGSGGGGRGGFPSGGGGGGGQQRAGDWKCPNPTCENMNFSWRNECNQCKAPKPDGPGGGPGGSHMGGNYGDDRRGGRGGYDRGGYRGRGGDRGGFRGGRGGGDRGGFGPGKMDSRGEHRQDRRERPY
modifications: MBP tag omitted. Limits are not printed: start taken just after the RRM (285-371), running to the C-terminus (RGG2-ZnF-RGG3-PY). Zn2+ in the RanBP2-type zinc finger. His-MBP tag omitted. Limits are not printed: 1-214 is the conventional FUS PrLD/low-complexity domain, and it includes Y177, which the paper places in the PrLD.
With B1 the koff [7] was 0.00052 s⁻¹.

B2: MBP-tagged CTRR (C-terminal RGG-rich region, RGG2-ZnF-RGG3-PY) of FUS (domain or fragment)
chain: RADFNRGGGNGRGGRGRGGPMGRGGYGGGGSGGGGRGGFPSGGGGGGGQQRAGDWKCPNPTCENMNFSWRNECNQCKAPKPDGPGGGPGGSHMGGNYGDDRRGGRGGYDRGGYRGRGGDRGGFRGGRGGGDRGGFGPGKMDSRGEHRQDRRERPY
modifications: MBP tag omitted. Limits are not printed: start taken just after the RRM (285-371), running to the C-terminus (RGG2-ZnF-RGG3-PY). Zn2+ in the RanBP2-type zinc finger. / His-MBP tag omitted. Limits are
Work on B2 yielded a Kd [8] of 1.37 µM.
